Reference: article PMC7884425, “HPF1 remodels the active site of PARP1 to enable the serine ADP-ribosylation of histones” (Nature Communications, 2021)

T1: human HPF1 E138K (human, UniProt Q9NWY4 1-346, E138K)
T1 construct: HPF1, human; not shown: His6, N-terminal, cleaved
T1 sequence (looked up): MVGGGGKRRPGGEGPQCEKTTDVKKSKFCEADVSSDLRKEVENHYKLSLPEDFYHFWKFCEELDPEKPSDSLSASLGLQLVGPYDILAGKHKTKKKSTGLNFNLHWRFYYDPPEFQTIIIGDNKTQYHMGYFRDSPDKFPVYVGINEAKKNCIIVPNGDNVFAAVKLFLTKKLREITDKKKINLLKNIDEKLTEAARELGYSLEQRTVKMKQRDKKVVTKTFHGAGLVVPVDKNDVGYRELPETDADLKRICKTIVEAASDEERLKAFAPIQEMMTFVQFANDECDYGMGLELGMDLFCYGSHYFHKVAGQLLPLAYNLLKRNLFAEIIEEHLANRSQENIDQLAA

T2: human HPF1 E284A (human, UniProt Q9NWY4 1-346, E284A)
T2 construct: HPF1, human; not shown: His6, N-terminal, cleaved
T2 sequence (looked up): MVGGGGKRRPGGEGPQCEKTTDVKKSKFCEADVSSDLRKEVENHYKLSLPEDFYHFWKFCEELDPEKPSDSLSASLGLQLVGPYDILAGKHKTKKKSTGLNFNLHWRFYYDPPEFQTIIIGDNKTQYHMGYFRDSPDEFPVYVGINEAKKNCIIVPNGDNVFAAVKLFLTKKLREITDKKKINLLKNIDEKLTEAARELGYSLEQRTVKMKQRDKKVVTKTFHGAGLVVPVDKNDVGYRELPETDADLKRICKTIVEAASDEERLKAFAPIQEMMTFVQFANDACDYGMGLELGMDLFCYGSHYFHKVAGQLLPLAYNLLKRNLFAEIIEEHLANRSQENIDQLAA

T3: human HPF1 F139S (human, UniProt Q9NWY4 1-346, F139S)
T3 construct: HPF1, human; also called HPF F139S; not shown: His6, N-terminal, cleaved
T3 sequence (looked up): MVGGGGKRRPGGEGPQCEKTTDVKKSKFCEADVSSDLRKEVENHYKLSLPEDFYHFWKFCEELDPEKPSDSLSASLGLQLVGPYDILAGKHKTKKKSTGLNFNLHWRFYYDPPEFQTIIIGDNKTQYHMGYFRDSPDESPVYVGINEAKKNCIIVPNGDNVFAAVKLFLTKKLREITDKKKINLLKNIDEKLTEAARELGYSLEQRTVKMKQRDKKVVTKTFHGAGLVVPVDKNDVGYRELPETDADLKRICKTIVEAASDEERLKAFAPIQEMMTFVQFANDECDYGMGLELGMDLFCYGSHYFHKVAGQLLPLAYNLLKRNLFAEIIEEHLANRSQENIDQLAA

T4: human HPF1 R239A (human, UniProt Q9NWY4 1-346, R239A)
T4 construct: HPF1, human; not shown: His6, N-terminal, cleaved
T4 sequence (looked up): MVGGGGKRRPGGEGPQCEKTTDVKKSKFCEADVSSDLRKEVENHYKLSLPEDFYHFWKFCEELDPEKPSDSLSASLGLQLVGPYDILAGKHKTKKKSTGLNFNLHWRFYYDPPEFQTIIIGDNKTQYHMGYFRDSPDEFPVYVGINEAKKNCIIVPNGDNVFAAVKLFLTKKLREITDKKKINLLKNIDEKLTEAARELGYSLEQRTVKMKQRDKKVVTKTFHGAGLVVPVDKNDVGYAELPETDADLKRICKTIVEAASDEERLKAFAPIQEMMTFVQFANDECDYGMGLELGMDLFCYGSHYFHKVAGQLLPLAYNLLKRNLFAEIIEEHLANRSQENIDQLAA

T5: human HPF1 K216E (human, UniProt Q9NWY4 1-346, K216E)
T5 construct: HPF1, human; not shown: His6, N-terminal, cleaved
T5 sequence (looked up): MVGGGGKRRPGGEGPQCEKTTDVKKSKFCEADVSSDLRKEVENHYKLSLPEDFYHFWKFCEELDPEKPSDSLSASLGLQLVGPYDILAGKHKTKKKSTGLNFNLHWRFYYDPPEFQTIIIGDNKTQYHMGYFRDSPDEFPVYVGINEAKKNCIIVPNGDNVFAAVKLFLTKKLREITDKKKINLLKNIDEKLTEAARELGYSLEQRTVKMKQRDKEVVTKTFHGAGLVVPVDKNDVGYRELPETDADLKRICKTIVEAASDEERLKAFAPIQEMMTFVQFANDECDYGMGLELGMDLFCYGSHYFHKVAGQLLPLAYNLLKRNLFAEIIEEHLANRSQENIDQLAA

T6: human HPF1 K307S (human, UniProt Q9NWY4 1-346, K307S)
T6 construct: HPF1, human; not shown: His6, N-terminal, cleaved
T6 sequence (looked up): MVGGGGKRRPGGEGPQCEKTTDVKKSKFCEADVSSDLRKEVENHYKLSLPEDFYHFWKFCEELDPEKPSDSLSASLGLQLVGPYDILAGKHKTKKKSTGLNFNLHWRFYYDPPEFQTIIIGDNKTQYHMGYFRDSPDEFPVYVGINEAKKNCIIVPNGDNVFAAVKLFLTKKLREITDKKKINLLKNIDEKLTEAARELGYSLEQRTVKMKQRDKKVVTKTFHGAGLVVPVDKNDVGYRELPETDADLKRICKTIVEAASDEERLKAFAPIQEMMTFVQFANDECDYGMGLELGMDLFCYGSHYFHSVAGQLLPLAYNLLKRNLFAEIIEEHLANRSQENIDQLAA

T7: human HPF1 C285H (human, UniProt Q9NWY4 1-346, C285H)
T7 construct: HPF1, human; not shown: His6, N-terminal, cleaved
T7 sequence (looked up): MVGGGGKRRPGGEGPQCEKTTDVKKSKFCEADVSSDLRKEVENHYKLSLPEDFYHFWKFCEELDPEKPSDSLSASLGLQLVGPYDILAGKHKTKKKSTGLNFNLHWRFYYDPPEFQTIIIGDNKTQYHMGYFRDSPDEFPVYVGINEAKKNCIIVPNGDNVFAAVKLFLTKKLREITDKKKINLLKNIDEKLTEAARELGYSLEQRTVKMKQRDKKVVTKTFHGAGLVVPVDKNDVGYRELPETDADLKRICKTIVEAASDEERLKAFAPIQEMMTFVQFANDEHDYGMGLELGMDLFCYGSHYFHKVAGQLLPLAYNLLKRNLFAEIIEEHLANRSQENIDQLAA

T8: human HPF1 F280A (human, UniProt Q9NWY4 1-346, F280A)
T8 construct: HPF1, human; not shown: His6, N-terminal, cleaved
T8 sequence (looked up): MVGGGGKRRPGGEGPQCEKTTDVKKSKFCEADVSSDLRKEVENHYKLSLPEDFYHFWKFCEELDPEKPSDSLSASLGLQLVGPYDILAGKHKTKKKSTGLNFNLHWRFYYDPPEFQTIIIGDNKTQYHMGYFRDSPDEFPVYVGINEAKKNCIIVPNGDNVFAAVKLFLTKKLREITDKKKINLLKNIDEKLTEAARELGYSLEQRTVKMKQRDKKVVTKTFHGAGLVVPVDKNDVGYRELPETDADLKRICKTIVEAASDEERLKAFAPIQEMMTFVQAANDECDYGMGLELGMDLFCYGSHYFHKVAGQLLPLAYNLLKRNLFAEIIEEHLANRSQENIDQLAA

B1: human HPF1 (histone PARylation factor 1), wild-type (natural protein, UniProt Q9NWY4 1-346, looked up)
chain: MVGGGGKRRPGGEGPQCEKTTDVKKSKFCEADVSSDLRKEVENHYKLSLPEDFYHFWKFCEELDPEKPSDSLSASLGLQLVGPYDILAGKHKTKKKSTGLNFNLHWRFYYDPPEFQTIIIGDNKTQYHMGYFRDSPDEFPVYVGINEAKKNCIIVPNGDNVFAAVKLFLTKKLREITDKKKINLLKNIDEKLTEAARELGYSLEQRTVKMKQRDKKVVTKTFHGAGLVVPVDKNDVGYRELPETDADLKRICKTIVEAASDEERLKAFAPIQEMMTFVQFANDECDYGMGLELGMDLFCYGSHYFHKVAGQLLPLAYNLLKRNLFAEIIEEHLANRSQENIDQLAA
notes: HPF1 (C4orf27), human; TEV site ENLYFQG between the His tag and the protein; the tag was removed with TEV protease; also called C4orf27; not shown: His6, N-terminal, cleaved
B2: human PARP1-CAT ΔHD (661-678-GSGSGSGG-787-1014) (domain or fragment)
chain: TKSKLPKPVQDLIKMIFDGSGSGSGGKDPIDVNYEKLKTDIKVVDRDSEEAEIIRKYVKNTHATTHNAYDLEVIDIFKIEREGECQRYKPFKQLHNRRLLWHGSRTTNFAGILSQGLRIAPPEAPVTGYMFGKGIYFADMVSKSANYCHTSQGDPIGLILLGEVALGNMYELKHASHISKLPKGKHSVKGLGKTTPDPSANISLDGVDVPLGTGISSGVNDTSLLYNEYIVYDIAQVNLKYLLKLKFNFKTSLW
notes: PARP1, human, catalytic domain, residues 661-678; linker that replaces residues 679-786 (most of the HD subdomain); PARP1, human, catalytic domain (ART), residues 787-1014; also called CAT△HD; not shown: His6, N-terminal, cleaved

Key:
Assay in all cases: ITC; HPF1 wild-type or mutant 0.3 or 0.4 mM in the syringe, PARP1 CAT-ΔHD (or full-length CAT) 0.02 mM in the cell; 25 °C; 20 mM Tris-pH 8.0, 150 mM NaCl, 1 mM TCEP, 1 mM MgCl2
Details in all cases: both partners purified
[1] = molecular target: B2
[2] = molecular target: B1
[3] = molecular target: T1, human HPF1 E138K
[4] = molecular target: T2, human HPF1 E284A
[5] = molecular target: T3, human HPF1 F139S
[6] = molecular target: T4, human HPF1 R239A
[7] = molecular target: T5, human HPF1 K216E
[8] = molecular target: T6, human HPF1 K307S
[9] = molecular target: T7, human HPF1 C285H
[10] = molecular target: B1; remark: listed apart in the source
[11] = molecular target: T8, human HPF1 F280A

Row | stoichiometry N [1] | Ka [2] | Kd [2] | Kd [3] | Kd [4] | Kd [5] | Kd [6] | Kd [7] | Kd [8] | Kd [9] | Kd [10] | Kd [11] | Binder
1 | 1 | – | – | – | – | – | – | – | – | – | – | – | B1
2 | – | 758000 M⁻¹ | ~1300 nM | 1700 nM | 300 nM | 2400 nM | 2400 nM | 1400 nM | 9300 nM | 28700 nM | 1500 nM | 6000 nM | B2
